Where a chain is given by its changes, count along the chain named.
B1: C89A10 (antibody, V domains shown)
VH: EVQLLESGGGLVQPGGSLRLSCAASGFIFSSYAMSWVRQAPGKGLEWVSVISGSGDITYYADSVKGRFTISRDNSKNTLYLQMNSLRAEDTAVYYCAKDIDEPTAMVESWGYWGQGTLVTVSS
VL: QSALTQPRSVSGSPGQSVTISCTGTSSDVGGYNYVSWYQQHPGKAPKLMIYDVSKRPSGVPDRFSGSKSGNTASLTISGLQAEDEADYYCCSYAGSWVFGGGTKLTVL
B2: C63C7 (antibody, V domains shown)
VH: not shown
VL: QSVLTQPPSVSGAPGQRATISCTGSSSNIGAGYDVHWYQQLPGTSPKLLIYGNSNRPSGVPDRFSGSKSGTSASLAITGLQAEDEAEYYCQSYDSSLSGSVVFGGGTKLTVL
B3: C63D3 (antibody, V domains shown)
VH: EVQLVESGGGLVQPGGSLRLSCAASGFTFSSYDMHWVRQATGKGLEWVSVIGTAGDTYYPGSVKGRFTISRENAKNSLYLQMNSLRAGDTAVYYCARGHSTGQGYSYYYYMDVWGKGTTVTVSS
VL: not shown
B4: G32Q4 (antibody, V domains shown)
VH: QVQLVESGGGVVQPGRSLRLSCAASGFTFSRYAMQWVRQAPGKGLEWVAVISYDGNNRYYADSVKGRFTISRDNSKNTLYLQMNSLRAEDTAVYYCARGPPGYYDSSGYYQTPEYFQHWGQGTLVTVSS
VL: QSVLTQPPSVSGAPGQRVTISCTGSSSNIGVGYDVHWYQQFPGTVPKLLIYGNSNRPSGVPDRFSGSKSGTSASLAITGLQAEDEADYYCQSYDSSLSGVVFGGGTKLTVL
B5: C30C2 (antibody, V domains shown)
VH: EVQLVESGGGLVQPGGSLRLSCAASGFTVSSNYMSWVRQAPGKGLEWVSVIYSGGSTYYADSVKGRFTISRDNSKNTLYLQVNSLRAEDTAVYYCARDGRDNAFDIWGQGTMVTVSS
VL: not shown
B6: C98C7 (antibody, V domains shown)
VH: EVQLVESGGGLVQPGGSLRLSCAASGITVSSNYMSWVRQAPGKGLEWVSVIYSGGSTFYADSVKGRFTISRDNSKNTLYLQMSSLRAEDTAVYYCARDLVVFGMDVWGQGTTVTVSS
VL: EIVLTQSPGTLSLSPGETATLSCRASQSVGSSYLTWYQQKPGQAPRLLIYGASSRATGIPDRFSGSGSGTDFTLTISRLEPEDFAVYYCQHYGSSPTFGQGTKVEIK
B7: G32B6 (antibody, V domains shown)
VH: QVQLVQSGAEVKKPGASVKVSCKASGYTFTGYYMYWVRQAPGQGLEWMGWINPNSGGTNYAQKFQGRVTMTRDRSISTAYMELSRLRSDDTAMYYCARDRVGDILTGYYGYWGQGTLVTVSS
VL: QSALTQPPSASGSPGQSVTISCTGTSSDVDSYNYVSWYQQHPGKAPKLMIYEVSKRPSGVPDRFSGSKSGNTASLTVSGLQAEDEADYYCSSYAGSNNWVFGGGTKLTVL
B8: G32A8 (antibody, V domains shown)
VH: QVQLVQSGAEVKKPGASVKVSCKASGYTFTGYYMHWVRQAPGQGLEWMGWINPNSGATNYAQKFQGRVTMTRDTSINTAYMELNRLRSDDTAVYYCARDIVFSRLGASFDYWGQGTLVTVSS
VL: B7 VL with D30G, S31G, S54T, N98Y, W99N
B9: G32C4 (antibody, V domains shown)
VH: EVQLVQSGAEVKKPGESLKISCKGSGYSFISYWIGWVRQMPGKGLEWMGIIYPGDSDTRYSPSFQGQVTISADKSISTAYLQWSSLKASDTAMYYCARMTQGYGTIRPLYYFDYWGQGTLVTVSS
VL: not shown
B10: C15D10 (antibody, V domains shown)
VH: QVQLQQSGPGLVKPSQTLSLTCAISGDSVSSNSAAWNWIRQSPSRGLEWLGRTYYRSKWYNDYAVSVKSRITINPDTSKNQFSLQLNSVTPEDTAVYYCAREQQLVSHDYYYYYGMDVWGQGTTVTVSS
VL: QSALTQPASVSGSPGQSITISCTGTSSDVGGYNYVSWYQQHPGKAPKLMIYDVSNRPSGVSNRFSGSKSGNTASLTISGLQAEDEADYYCSSYTSSSSLFGTGTKVTVL
B11: C18C11 (antibody, V domains shown)
VH: EVQLVESGGGVVQPGRSLRLSCAASGFTFSSYAMHWVRQAPGKGLEWVAVISYDGSNKYYADSVKGRFTISRDNSKNTLYLQMNSLRAEDTAVYYCASLITMVRGVFDYWGQGTLVTVSS
VL: not shown
B12: C15D4 (antibody, V domains shown)
VH: QVQLQQWGAGLLKPSETLSRTCAVYGGSFSGYYWTWIRQPPGMALEWIGDINHGGVTNYNPSLKSRVTISVDTSKNQFSLRLTSVTAADTAVYYCARRLLGDPRPASSSLSLRRVSYMDVWDKGTTVTVSS
VL: DIQMTQSPSSMSASVGDRVTITCRASQSISNYLNWYQQKPGRAPKLLIYGASSLQSGVPSRFGGSGSGTEFTLTITALQPEDSATYYCQQIHGAPPITFGQGTRLEIK
B13: C102A4 (antibody, V domains shown)
VH: QVQLVQSGAEVKKPGSSVKVSCKASGGTFSSYAISWVRQAPGQGLEWMGGIIPIFGTANYAQKFQGRVTITADESTSTAYMELSSLRSEDTAVYYCATQPSYGDLDLFDYWGQGTLVTVSS
VL: not shown
B14: C53F11 (antibody, V domains shown)
VH: QVQLQESGPGLVKPSETLSLTCTVSGYSISSGYYWGWIRQPPGKGLEWIGSIYHSESTYYNPSLKSRVTISVDTSKSQFSLKLSSVTAADTAVYYCGRSLWDSIWEDHIGAVDYWGQGTLVTVSS
VL: QSALTQPASVSGSPGQSITISCTGTSSDVGNYNLVSWYQQHPGKAPKLMIYEGSKRPSGVSNRFSGSKSGNTASLTISGLQAEDEADYYCCSYAGSSILWVFGGGTKLTVL
B15: C53F9 (antibody, V domains shown)
VH: QVQLVQSGAEVKKPGASVKVSCKASGYTFTSYGISWVRQAPGQGLEWMGWISAYNGNTNYAQKLQGRVTMTTDTSTSTAYMELRSLRSDDTAVYYCARVGTYYYDSSAYYFDYWGQGTLVTVSS
VL: not shown
B16: C53E1 (antibody, V domains shown)
VH: EVQLVQSGAEVKKPGESLKISCKGSGYSFTSYWIGWVRQMPGKGLEWMGIIYPGDSDTTYSPSFQGQVTISADKSISTAYLQWSSLKASDTAMYYCARRSNSPFPLIDYWGQGTLVTVSS
VL: not shown
B17: C53F10 (antibody, V domains shown)
VH: EVQLVQSGAEVKKPGESLRISCKGAGYSFTSYWITWVRQMPGKGLEWMGRIDPSDSYTNYSPSFEGHVTISADKSISTAYLQWSSLKASDTAMYYCARLYCGGDCPPGYWGQGTLVTVSS
VL: not shown
B18: C41P1 (antibody, V domains shown)
VH: QVQLVESGGGVVQPGRSLRLSCAASGFTFSSYAMHWVRQAPGKGLEWVAVISYDGRNKYYADSVKGRFTISRENSKNTLYLQMNSLRAEDTAVYYCARDLGVVVPAAIGWVNPRDDYYYYYGMDVWGQGTTVTVSS
VL: SYELTQPPSVSVSPGQTARITCSGDALPKQYAYWYQQKPGQAPVLVIYKDSERPSGIPERFSGSSSGTTVTLTISGVQAEDEADYYCQSADSSGTYRVFGTGTKVTVL
B19: C12E7 (antibody, V domains shown)
VH: QVQLVESGGGVVQPGRSLRLSCAASGFTFSSYGMHWVRQAPGKGLEWVAVISYDGSNKYYADSVKGRFTISRDNSKNTLYLQMNSLRAEDTAVYYCAKSGYSYAYPMVYFDYWGQGTLVTVSS
VL: SYELTQPPSVSVAPGKTARITCGGNNIGSKSVHWYQQKPGQAPVLVVYDDSDRPSGIPERFSGSNSGNTATLTISRVEAGDEADYYCQVWDSSSDHPGVFGGGTKLTVL
B20: G32Q3 (antibody, V domains shown)
VH: QVQLVQSGTEVKKPGASVKVSCKASGYTFPNYGITWVRQAPGQGLEWVGWISAYNGNTNYAQKLQGRVTMTTDTSTNTAYMELRSLRSDDTAVYYCARSIAVAGTTAEFDYWGQGTLVTVSS
VL: not shown
B21: C12D5 (antibody, V domains shown)
VH: QVQLVESGGGVVQPGRSLRLSCAASGFTFSSYVMHWVRQAPGKGLEWVAVISYDGSNKYYADSVKGRFTISRDNSKNTLYLQMNSLRAEDTAVYYCARDPGARRDGYVSLGGSYDWFDPWGQGTLVTVSS
VL: B4 VL with S25T, V31A, F41L, V45A, V100W
B22: G32B1 (antibody, V domains shown)
VH: QVQLVESGGGVVQPGRSLRLSCAASGFTFSSYGMHWVRQAPGKGLEWVAVISYDGSNKYYADSVKGRFTISRDNSKNTLYLQMNSLRAEDTAVYYCAKVVAPYYYYYYGMDVWGQGTTVTVSS
VL: B14 VL with N31G, L34Y, G53V, K55N, C91S, A94T, G95S, I98T, L99S
B23: C63C8 (antibody, V domains shown)
VH: EVQLVESGGGLVQPGGSLRLSCAASGFTFSSYWMSWVRQAPGKGLEWVANIKQDGSEKYYVDSVKGRFTMSRDNAKNSLYLQMNSLRAEDTAVYYCASLRWLQADFEYWGQGTLVTVSS
VL: NFMLTQPHSVSESPGKTVTISCTRSSGSIASNYVQWYQQRPGSSPTTVIYEDNQRPSGVPDRFSGSIDSSSNSASLTISGLKTEDEADYYCQSYDSTNHVFGTGTKVTVL
B24: C18C10 (antibody, V domains shown)
VH: EVQLVESGGGLVQPGGSLRLSCAASGFTFSNYAISWVRQAPGKGLEWVSLISGSGGSTYYADSVKGRFTISRDNSKNTLYLQMNSLRAEDTAVYYCATTNIPPFSGYYLDAFDIWGQGTMVTVSS
VL: not shown
B25: C12C10 (antibody, V domains shown)
VH: not shown
VL: B14 VL with N31G, L34Y, E52D, G53V, K55Y, C91S, A94T, G95S, W100G
B26: C93D1 (antibody, V domains shown)
VH: B19 VH with S31N, S99G, G100S, S102F, Y103H, A104S, Y105N, P106Y, M107W, V108D
VL: not shown

Molecular target: SARS-CoV-2 S ectodomain trimer, prefusion-stabilized, 2P variant (Wrapp et al., 2020) (SARS-CoV-2, Wuhan-Hu-1, UniProt P0DTC2, stabilised)

Binder	binding result
B1	binds
B2	binds
B3	binds
B4	binds
B5	binds
B6	binds
B7	binds
B8	binds
B9	binds
B10	binds
B11	binds
B12	binds
B13	binds
B14	binds
B15	binds
B16	binds
B17	binds
B18	binds
B19	binds
B20	binds
B21	binds
B22	binds
B23	binds
B24	binds
B25	binds
B26	binds

— PMC8299219 (Cell, 2021)
